# In paper PMC10297700:
# B1: ACC1_TIM23 probe (RSC3 consensus oligonucleotide) (dsDNA)
# DNA 1: ACGCGCGCGCGGCCGGGCCA
# DNA 2: TGGCCCGGCCGCGCGCGCGT
# Target: Rsc3ΔIDR (Saccharomyces cerevisiae, UniProt Q06639 1-885, del197-303)
# Experiment: EMSA
binder,measurement,value
B1,binding result,binds
